Tested on: K4 kissing-loop RNA reporter
Assay: apparent KD of K4 kissing-loop reporter; higher = weaker reporter binding
Settings: Eterna round: R107
Procedure: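 RNA-MaP round R107: designed RNA switches with theophylline, tryptophan, arginine or FMN aptamers are transcribed on-chip within common flanks. They are titrated with a labelled K4 kissing-loop RNA reporter in RNA-MaP buffer (100 mM Tris pH 7.5, 80 mM KCl, 4 mM MgCl2), without ligand or with the indicated ligand. Median apparent KD per design.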

[1] = input ligand: theophylline 20 uM
[2] = input ligand: tryptophan 2.4 mM
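Also: bound reporter read as fluorescence of individual clusters on recovered sequencing chips by microscopy, with normalized cluster intensities fitted with a binding model.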

Row | Sequence | apparent KD of K4 kissing-loop reporter (input ligand: FMN 200 uM) | apparent KD of K4 kissing-loop reporter (input ligand: arginine 13.2 mM) | apparent KD of K4 kissing-loop reporter (input ligand: none) | apparent KD of K4 kissing-loop reporter [1] | apparent KD of K4 kissing-loop reporter [2]
1 | AAAAUAAACCAGUGAUGUUGGUGUCCAGAUACCAGCGAUAAAAGUCGCCCUUGGCAGCUGUGGACGUACAAAAUAAGUACGUCCU [MatMod 2 - Jieux - Same State - Theophylline A] | 703 nM | 533 nM | 872 nM | 529 nM | 678 nM
2 | AAAAUAAACCAGUGAUGUUGGUGUCUAGAUACCAGCGACGAAAGUCGCCCUUGGCAGCUGUGGACGUACAAAAUAAGUACGUCCU [MatMod 5 - Jieux - Same State - Theophylline A] | 564 nM | 327 nM | 541 nM | 480 nM | 472 nM
3 | AAAAUAAUCCAGUGAUGUUGGUAACCAGAUACCAGCGACGAAAGUCGCCCUUGGCAGCUGUGGACGUACAAAAUAAGUACGUCCU | 344 nM | 415 nM | 441 nM | 358 nM | 312 nM
4 | AAACAUCACUGGGAGUGAUGUUCUCAGUGACGAGGACCGGUACGGCCGCCACUCGCGAGAGAUAUAGUCUAGUAAUGACUGCAUU [Excl Tryptophan A V9] | 299 nM | 274 nM | 292 nM | 322 nM | 391 nM
5 | AAAGAGUCACUCGAAGCCAUCGAAGAUGGGCGAGGACCGGUACGGCCGCCACUCGGAGUGAUGUUCCGAAGACUGUAAAAUAAAA [MatMod 11 - Jieux - Exclusion - Tryptophan A] | 273 nM | 242 nM | 451 nM | 362 nM | 355 nM
6 | AAAGAGUCCUGAGCCGAAGAAGAAGGCGGACGAGGACCGGUACGGCCGCCACUCGAAAGGAGUGCGGCUGAGUGAUGUUUGGCCG [Tryptophan A (C-G optomized)] | 342 nM | 181 nM | 284 nM | 281 nM | 268 nM
7 | AAAGUAUACUGAAGGAGCGAGUAGUGGAAACAUAAACUCAUUGCGAGUGAUGUUCGCAGUACUCAGGUAGGUCGCGGUAAUCGUA [Exclusion Arginine B Gf 12] | 499 nM | 498 nM | 934 nM | 554 nM | 558 nM
8 | AAAUAAAGCAGUCACCCAGUGAUGUUGGAAGGAGCGUGCGAAAGCACAGGUAGGUCGCCAAAAUAAAGUGGCUGCGGCAAAGCCA [#SwitchBubble 25 #K4Early] | 409 nM | 428 nM | 399 nM | 578 nM | 305 nM
9 | AAAUAGAUCAGUCAACCAGUGAUGUUGGAAGGAGCGUGCGAAAGCACAGGUAGGUCGCCAUAAUAAAAUUGGCUGAUCAAAAUAA | 340 nM | 615 nM | 648 nM | 614 nM | 344 nM
10 | AAAUAGAUCAGUCACCCAGUGAUGUUGGAAGGAGCGUGCGAAAGCACAGGUAGGUCGCCAAAAUAAAAGUGGCUGAUCAAAAUAA [#SwitchBubble 5 #K4Early] | 336 nM | 300 nM | 389 nM | 526 nM | 226 nM
11 | AAAUCGUUCAGAAGGAGCGUGAAUUAUUCUUAAUUAUAUUAUACGAGUGAUGUUCGUGUUUCACAGGUAGGUCGCUGAUCGAUAA [JR_SSArginiB_Sub005] | 94.4 nM | 126 nM | 95.6 nM | 148 nM | 84.1 nM
12 | AACAUUUUCAGAAGGAGCGUGAAUUAUUCAUAAUUAUAUUAUACGAGUGAUGUUCGUAUUUCACAGGUAGGUCGCUGAUAUAGUA [#02 K4 Arginine B Same State] | 94.5 nM | 127 nM | 104 nM | 121 nM | 93.1 nM
13 | AACGUUUUGAGAAGGAGCGCGAUAAGCAGUGAUGUUGCUAAAAUUCUAUUUCAAUUUAAUACGCAGGUAGGUCGCUCAAUACGUA [JR_SSArginiB_Sub020] | 143 nM | 136 nM | 138 nM | 156 nM | 118 nM
14 | AACUCUCAGACACUUGAGUGAUGUUCAGGCCGAGGACCGGUACGGCCGCCACUCGGGUCUGAGAGAGGUUAUCAAAGAUAGCCAA [Omei KL Tryp A SS A v5] | 350 nM | 194 nM | 249 nM | 261 nM | 273 nM
15 | AAGAGAUAGGGAGGAUAUGCCCUAUUGAGAACCGAGUGAUGUUCGGUAGGACAAAUAGUCCACAGGGUAGAAGGCCCACAUCACA [SS FNM B Tesla 2] | 191 nM | 213 nM | 244 nM | 476 nM | 267 nM
16 | AAGAGCCUCAAGAGGCAGUAUCUGCCUCAACGAGGACCGGUACGGCCGCCACUCGAAUAAUAGAGUGAUGUUCUAAGAGGCUCAA [AK8 SS Tryptophan A] | 710 nM | 558 nM | 586 nM | 548 nM | 487 nM
17 | AAGAGGUAGGCGGCCGCCACUUGUUGUGAACACAUACGAGCCAGUGAUGUUGGUAUUGUGGGCGGAAGGACCGGGCCUACCUGAA [Exclusion - Tryptophan B (Freestyle 20)] | 317 nM | 304 nM | 320 nM | 328 nM | 386 nM
18 | AAGCAGUCACUCGAAAUCAUCAAAGAUGAACGAGGACCGGUACGGCCGCCACUCGGAGUGAUGUUCCGAAGACUGCAAAAUAAAA [MatMod 2 - Jieux - Exclusion - Tryptophan A] | 307 nM | 225 nM | 243 nM | 274 nM | 112 nM
19 | AAGCAGUCACUCGAAUCCAUCGAAGAUGGGCGAGGACCGGUACGGCCGCCACUCGGAGUGAUGUUCCAAAGACUGCAAAAUAAAA | 451 nM | 378 nM | 306 nM | 550 nM | 136 nM
20 | AAGCAGUCUCUUGUAACCAUCGAAGAUGGACGAGGACCGGUACGGCCGCCACUCGGAGUGAUGUUCCGAAGACUGCAAAAUAAAA [MatMod 15 - Jieux - Exclusion - Tryptophan A] | 713 nM | 712 nM | 828 nM | 1280 nM | 1350 nM
21 | AAGCGUAAAAUGGCGGACAUACUGCUCCCACGAGGACCGGUACGGCCGCCACUCGAGUGCGGCAGUGAUGUUGCCGCCUUAGCGU [KL-XTryp-A20] | 92.9 nM | 81.3 nM | 92 nM | 80.3 nM | 81.9 nM

Row | Sequence | apparent KD of K4 kissing-loop reporter (input ligand: FMN 200 uM) | apparent KD of K4 kissing-loop reporter (input ligand: arginine 13.2 mM) | apparent KD of K4 kissing-loop reporter (input ligand: none) | apparent KD of K4 kissing-loop reporter [1] | apparent KD of K4 kissing-loop reporter [2]
22 | AAGGACUGCCAGGGAACACACUCAUUAUGGGAGGAUAUGUUAGCUGACAGAAGGCCCAGUGAUGUUGGGCCGGCGGGCUGUCAGG [Diargean] | 244 nM | 202 nM | 218 nM | 237 nM | 177 nM
23 | AAGGCACGGCUUCGGCCGUGCCAAAUAGAUACCAGCAUAAUAAUAUGCCCUUGGCAGCUAAAUAGAAAUUCAGUGAUGUUGGAUA [SS Theo A Tesla 2.1] | 597 nM | 444 nM | 601 nM | 586 nM | 649 nM
24 | AAGUAGAUCAAGAUCUAGUAUCUAGAUCAACGAGGACCGGUACGGCCGCCACUCGAAUAAUAGAGUGAUGUUCUAAGAUCUACAA [AK1.4 SS Tryptophan A] | 898 nM | 716 nM | 994 nM | 968 nM | 445 nM
25 | AAGUCUCGUUAAUUCGUGGUUUCGAUCGAUACCAGUAGCGAGAGGUACCCUUGGCAGCGAAAUGAGUGAUGUUCAUGAAAGAAGA [KL-XTheoA11] | 101 nM | 124 nM | 111 nM | 153 nM | 87.1 nM
26 | AAGUGAUGUUGUAGUGAUGUUGUGAUGUUGCAGGAUAUAUAGUGAUGUAGAAGGGUAAGUACUGAUGUUGUUAGUGAGUGAUGUU [wwzrrmullin] | 111 nM | 49.8 nM | 87.9 nM | 81.1 nM | 86.6 nM
27 | AAGUGAUGUUGUAGUGAUGUUGUGAUGUUGCAGGAUAUAUAGUGAUGUAGAAGGGUAUGUACAGUUUUUUUUUUUGAGUGAUGAU [vvcvmullin] | 82.3 nM | 40.1 nM | 74.2 nM | 51.4 nM | 70.3 nM
28 | AAGUGAUGUUGUAGUGAUGUUGUGAUGUUGCAGGAUAUAUAGUGAUGUAGAAGGGUAUGUACUUAUUUUUUUUUUGAGUUAUGUU [wzzwzrmullin] | 79.5 nM | 33.4 nM | 58 nM | 46.2 nM | 63.3 nM
29 | AAGUGAUGUUGUAGUGAUGUUGUGAUGUUGCAGGAUAUAUAGUGAUGUAGAAGGGUAUGUGCAGUGUUCUUAUUUGAGUGUUGAU [zffdmullin] | 80.1 nM | 33.9 nM | 64.7 nM | 63.2 nM | 64 nM
30 | AAGUGUGGUCCAGUGAUGUUGGAACCAGAUACCAGCGACAUAGUGCGCCCUUGGCAGCUGGCACACAUGCGCUGCACGACUAGAA [Riusveis] | 206 nM | 182 nM | 207 nM | 363 nM | 168 nM
31 | AAUAAAAUCACGGCCGCCACUGAUAUCCAUAUUAGGAGUGAUGUUCCUAUGACUAUAUAAUUUAACAGGACCGGGUGAAUAUUUA [JR_SSTryptoB_Sub024] | 104 nM | 111 nM | 107 nM | 115 nM | 100 nM
32 | AAUAAGGUCGCCGAUACCAGCGCAGGCAGAGCAAAGCUCUGCCUAGUAGUGAUGUUACUGCGCCCUUGGCAGCGGUGGCACGACC [Omei KL Theo B SS C v4] | 863 nM | 824 nM | 930 nM | 397 nM | 798 nM
33 | AAUAAGGUCGCCGAUACCAGCGCGGGCAGAGCAAAGCUCUGCCCGGCAGUGAUGUUGCCGCGCCCUUGGCAGCGGUGGCACGACC [Omei KL Theo B SS C v7] | 166 nM | 48.4 nM | 47.2 nM | 216 nM | 55.8 nM
34 | AAUAAUCUAGGUGAUACCAGCUCAACAUGAGUGAUGUUCAUGAACUAAUGUAGAGUUGAGAGCCCUUGGCAGCACCUAGAUAAUA [KL-SSTheoB6] | 873 nM | 792 nM | 966 nM | 458 nM | 962 nM
35 | AAUAAUUUCAGAGGAUAUGCUUUAUUAUGAUUUUUAAAUAAUAAAUGCAGUGAUGUUGCUUAUUAUGCAGAAGGCUGAUUUAUAA [JR_SSFMNB_Sub015] | 143 nM | 727 nM | 747 nM | 721 nM | 565 nM
36 | AAUACCUGAGUGAUGUUCAGGGAAUCAGAAGGAGCGUCAAUUAUGACAGGUAGGUCGCUGAAUACAUGUGUGUAUACACAUGUAC [Arg A SS t4] | 217 nM | 189 nM | 278 nM | 243 nM | 229 nM
37 | AAUAGGGAUAGUGAUGUUAUCCCUUAUGAUACCAGUGCCAUCGGACACCCUUGGCAGCAUACGGGCAGUGAUGUUGUUCUUGGAG [Exclusion Theophylline A GF 15] | 103 nM | 75.5 nM | 78.6 nM | 76.5 nM | 79.3 nM
38 | AAUCACCGAGCGGCCGCCACUGCACAAAGCGAGUUUAUAGACACGGUACUGGAGUGAUGUUCGAGCAGGACCGGGCUAACUAAGC [theeternabot_sameState_KL_Trp_B_12] | 871 nM | 610 nM | 1190 nM | 758 nM | 729 nM
39 | AAUGGCGAGUGAUGUUCGCCCACCAAUGAUACCAGUGCCAUCGGACACCCUUGGCAGCAUACGGGCAGUGAUGUUGCUCUUGGAA [Exclusion Theophylline A GF 26] | 185 nM | 181 nM | 193 nM | 200 nM | 177 nM
40 | AAUUAAUACAGAAGGAGCGUGAAAUUAUCUACUUUUAACUUAGCGAGUGAUGUUCGUUUUUCACAGGUAGGUCGCUGUAUAUUUA [JR_ExcArginiB_Sub009] | 167 nM | 214 nM | 194 nM | 192 nM | 152 nM
41 | AAUUCAAACUGAAGGAGCGAGCAUUUUGGAGUGAUGUUCCAAGCGAGUGAUGUUCGCAUAGCUCAGGUAGGUCGCAGUUUGGAUA [Same State Arginie B GF 14] | 143 nM | 136 nM | 144 nM | 143 nM | 139 nM
42 | AAUUCAGUGAUGUUGGAAGGCAGGCGGGAUACCAGCGGAGAAUAACGCCCUUGGCAGCCCAUAUAUCCCAAAUAGAUAAUAGUUC [Same State - Theophylline A (Freestyle 3)] | 386 nM | 317 nM | 410 nM | 405 nM | 376 nM

Reference: the supplement of paper PMC9170038
